Values joined by “and” are separate entries in the source; they are usually repeats but may differ in a detail not shown here. Equal entries are not always repeated. Positions of bridges follow the written chain, without caps; N, C: chain ends. Residues, ends and D or L forms follow the SMILES beside them. *: point of attachment. DOTA = O=C(O)CN1CCN(CC(=O)O)CCN(CC(=O)*)CCN(CC(=O)O)CC1
Tests used:
[1] = test system: tumours; settings: human, in vivo
Method: The radiolabelling procedure used was as follows.
(§1) Pre-therapeutic positron emission tomography/computed tomography (PET/CT) imaging was carried out 1 hour and 3 hours post injection with the imaging agent. […] Patient 1 was then administered with the therapeutic agent. […] single-photon emission computed tomography (SPECT) imaging was then carried out 1.5 hours, 17 hours, 41 hours, 65 hours and 141 hours post injection with the therapeutic agent.
(§2) Patient 2 was then administered with the therapeutic agent. […] SPECT imaging was then carried out 4.5 hours, 20 hours, 45 hours, 67 hours and 141 hours post injection with the therapeutic agent.
(§3) PET/CT imaging was performed using a Siemens Biograph mCT Flow PET/CT. SPECT imaging was performed using a Siemens Intevo SPECT/CT.

[2] = clinical; settings: for accumulation and retention in tumours (SPECT): up to 141 hours post injection
Method: A dosimetry study was carried out using Compound 3 to investigate the suitability of the compounds described herein for use in imaging and radiotherapy.
The radiolabelling procedure used was as follows. Compound 3 was dissolved in ultrapure water (2 μg/μl) and 1.5 mL of 0.4 M sodium acetate buffer at pH 4.8 (8 mg/mL). Gentisic acid was added and the mixture was transferred to a ^177Lu V-vial. The vial was heated for 25 minutes at 95° C.
as §1, §2, §3

[3] = target: cMet receptor (Homo sapiens, UniProt P08581); assay: Competition binding assay by fluorescence polarisation (FP); settings: mean; competition FP vs Cy5-labelled probe 20 nM, cMet receptor 50 nM, PBS pH 7.4 with 0.01% Tween 20
Method: The half maximal inhibitory concentration (IC50) and dissociation constant (Kd) values were determined by competition fluorescence polarisation (FP) assay for the binding of cMet binding cyclic peptide (unlabelled), cMet-DOTA (Compound 3) and cMet-DOTAGA (Compound 4) to cMet receptor.
The principle of the fluorescence polarisation method can briefly be described as follows:
Monochromatic light passes through a […] polarizing filter and excites fluorescent molecules in the sample. Only those molecules that are oriented properly in the vertically polarized plane adsorb light, become excited, and subsequently emit light. The emitted light is measured in both horizontal and vertical planes. The anisotropy value (A), is the ratio between the light intensities following the equation:
A=(Intensity with horizontal polarizer—Intensity with vertical polarizer)/(Intensity with horizontal polarizer+2* Intensity with vertical polarizer).
The fluorescence anisotropy measurements were performed in a 96-well flat bottom plate using a Molecular Devices M5 multi-mode plate reader.
The assay buffer used was phosphate-buffered saline (PBS), pH 7.4 with 0.01% Tween 20. […]
IC50 values were determined by data fitting with the following equation using KaleidaGraph v4.03: […]
Kd values were determined by data fitting with the following equation using KaleidaGraph v4.03: […]

[4] = patient 1, 835 MBq, tumours (individual clusters)
[5] = patient 2, 959 MBq, tumours (individual VOIs)

cMet receptor, sequence (P08581 25-932 limits assumed): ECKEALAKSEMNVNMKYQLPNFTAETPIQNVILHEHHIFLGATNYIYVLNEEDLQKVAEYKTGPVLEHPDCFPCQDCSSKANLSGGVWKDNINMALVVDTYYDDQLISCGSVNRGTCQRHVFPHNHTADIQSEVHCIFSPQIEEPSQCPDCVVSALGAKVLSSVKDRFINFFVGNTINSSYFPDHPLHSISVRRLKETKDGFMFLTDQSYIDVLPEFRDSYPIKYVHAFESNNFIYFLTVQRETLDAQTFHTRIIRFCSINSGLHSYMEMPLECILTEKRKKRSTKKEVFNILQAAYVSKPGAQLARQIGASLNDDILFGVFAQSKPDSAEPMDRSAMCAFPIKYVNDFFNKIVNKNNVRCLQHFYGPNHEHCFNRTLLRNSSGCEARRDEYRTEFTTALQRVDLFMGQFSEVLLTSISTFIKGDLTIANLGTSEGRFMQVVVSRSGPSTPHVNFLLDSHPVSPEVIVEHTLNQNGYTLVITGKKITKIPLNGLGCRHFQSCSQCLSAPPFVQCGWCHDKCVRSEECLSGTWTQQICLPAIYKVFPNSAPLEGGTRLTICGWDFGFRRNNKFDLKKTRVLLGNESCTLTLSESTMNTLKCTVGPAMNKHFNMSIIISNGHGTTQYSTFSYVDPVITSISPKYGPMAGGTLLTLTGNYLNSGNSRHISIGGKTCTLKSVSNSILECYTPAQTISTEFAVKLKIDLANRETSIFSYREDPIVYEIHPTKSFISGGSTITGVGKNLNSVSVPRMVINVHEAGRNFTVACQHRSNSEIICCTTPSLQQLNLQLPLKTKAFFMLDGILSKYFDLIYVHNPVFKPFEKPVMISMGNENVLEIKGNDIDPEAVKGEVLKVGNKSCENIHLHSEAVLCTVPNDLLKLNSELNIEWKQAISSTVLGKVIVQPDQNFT

In the case of `CC(=O)N[C@@H](C)C(=O)NCC(=O)N[C@@H](CO)C(=O)N[C@H]1CSSC[C@@H](C(=O)N[C@@H](Cc2ccc(O)cc2)C(=O)N[C@@H](CCC(=O)O)C(=O)N[C@H](C(=O)N[C@@H](CCC(=O)O)C(=O)NCC(=O)N[C@H](C(=O)NCC(=O)NCC(=O)NCC(=O)N[C@@H](CCCCNC(=O)CN2CCN(CC(=O)O)CCN(CC(=O)O)CCN(CC(=O)O)CC2)C(N)=O)[C@@H](C)O)[C@@H](C)O)NC(=O)[C@H](Cc2c[nH]c3ccccc23)NC(=O)[C@@H]2CSSC[C@H](NC(=O)[C@H](Cc3ccc(O)cc3)NC1=O)C(=O)N[C@@H](CO)C(=O)NCC(=O)N1CCC[C@H]1C(=O)N1CCC[C@H]1C(=O)N[C@@H](CCCNC(=N)N)C(=O)N[C@@H](Cc1ccccc1)C(=O)N[C@@H](CCC(=O)O)C(=O)N2` [^68Ga-Compound 3, metal not drawn] (Ac-AGSCYCSGPPRFECWCYETEGTGGGK(DOTA)-NH2; disulfide 4-16, 6-14), the “accumulation in tumours (PET/CT)” value [1] is reported as “accumulation”.
Compound `CC(=O)N[C@@H](C)C(=O)NCC(=O)N[C@@H](CO)C(=O)N[C@H]1CSSC[C@@H](C(=O)N[C@@H](Cc2ccc(O)cc2)C(=O)N[C@@H](CCC(=O)O)C(=O)N[C@H](C(=O)N[C@@H](CCC(=O)O)C(=O)NCC(=O)N[C@H](C(=O)NCC(=O)NCC(=O)NCC(=O)N[C@@H](CCCCNC(=O)CN2CCN(CC(=O)O)CCN(CC(=O)O)CCN(CC(=O)O)CC2)C(N)=O)[C@@H](C)O)[C@@H](C)O)NC(=O)[C@H](Cc2c[nH]c3ccccc23)NC(=O)[C@@H]2CSSC[C@H](NC(=O)[C@H](Cc3ccc(O)cc3)NC1=O)C(=O)N[C@@H](CO)C(=O)NCC(=O)N1CCC[C@H]1C(=O)N1CCC[C@H]1C(=O)N[C@@H](CCCNC(=N)N)C(=O)N[C@@H](Cc1ccccc1)C(=O)N[C@@H](CCC(=O)O)C(=O)N2` [^177Lu-Compound 3, metal not drawn] (Ac-AGSCYCSGPPRFECWCYETEGTGGGK(DOTA)-NH2; disulfide 4-16, 6-14) has a half-life ([2]; human, kidney (left), Half-life, patient 2, 959 MBq) of 37 h, a half-life ([2]; human, kidney (left), Halflife, patient 1, 835 MBq) of 21 h and a half-life ([2]; human, kidney (right), Half-life, patient 2, 959 MBq) of 40 h. For the same compound, the half-life ([2]; human, kidney (right), Halflife, patient 1, 835 MBq) was 21 h, the half-life ([2]; human, liver, Half-life, patient 2, 959 MBq) was 77 h and the half-life ([2]; human, liver, Halflife, patient 1, 835 MBq) was 73 h. For the same compound, the half-life ([2]; human, spleen, Half-life, patient 2, 959 MBq) was 58 h, the half-life ([2]; human, spleen, Halflife, patient 1, 835 MBq) was 39 h and the half-life ([2]; human, tumours (individual VOIs), Half-life, patient 2, 959 MBq) was 28 h. The half-life ([2]; human, tumours (individual clusters), Halflife, patient 1, 835 MBq) was 42 h, the Dose ([2]; patient 1, 835 MBq, kidney (left)) was 1.04 Gy and the Dose ([2]; patient 1, 835 MBq, kidney (right)) was 1.02 Gy. The Dose [2, 4] was 0.4 Gy and 0.43 Gy and 0.36 Gy, the Halflife [2, 4] was 48 h and 32 h and 59 h and the “accumulation and retention in tumours (SPECT)” value ([2]; patient 1, 835 MBq) was “accumulation and retention”. For the same compound, the Dose ([2]; patient 2, 959 MBq, kidney (left), VOI 2466) was 1.87 Gy, the Dose ([2]; patient 2, 959 MBq, kidney (left), VOI K-l-iso (Isocont.)) was 1.73 Gy and the Dose ([2]; patient 2, 959 MBq, kidney (right), VOI 2548) was 1.06 Gy. For the same compound, the Dose [2, 5] was 0.08 Gy and 0.05 Gy and 0.04 Gy, the half-life [2, 5] was 27 h and the “accumulation and retention in tumours (SPECT)” value ([2]; patient 2, 959 MBq) was “accumulation and retention”.
In the case of `CC(=O)N[C@@H](C)C(=O)NCC(=O)N[C@@H](CO)C(=O)N[C@H]1CSSC[C@@H](C(=O)N[C@@H](Cc2ccc(O)cc2)C(=O)N[C@@H](CCC(=O)O)C(=O)N[C@H](C(=O)N[C@@H](CCC(=O)O)C(=O)NCC(=O)N[C@H](C(=O)NCC(=O)NCC(=O)NCC(=O)N[C@@H](CCCCN)C(N)=O)[C@@H](C)O)[C@@H](C)O)NC(=O)[C@H](Cc2c[nH]c3ccccc23)NC(=O)[C@@H]2CSSC[C@H](NC(=O)[C@H](Cc3ccc(O)cc3)NC1=O)C(=O)N[C@@H](CO)C(=O)NCC(=O)N1CCC[C@H]1C(=O)N1CCC[C@H]1C(=O)N[C@@H](CCCNC(=N)N)C(=O)N[C@@H](Cc1ccccc1)C(=O)N[C@@H](CCC(=O)O)C(=O)N2` [cMet peptide (unlabelled)] (HELM PEPTIDE1{[ac].A.G.S.C.Y.C.S.G.P.P.R.F.E.C.W.C.Y.E.T.E.G.T.G.G.G.K.[am]}$PEPTIDE1,PEPTIDE1,5:R3-17:R3|PEPTIDE1,PEPTIDE1,7:R3-15:R3$$$V2.0), the IC50 [3] is reported as 0.32 ± 0.037 µM and the Kd [3] is reported as 0.0069 ± 0.0008 µM.

From patent US20220273830A1, “COMPOUNDS AND METHODS OF USE” (EDINBURGH MOLECULAR IMAGING LIMITED, priority 2019, published 2022)
